According to patent US20220119518A1 (KUMHO HT, published 2022):
Positions count from the first letter of the chain named.

Assays:
[1] = biological target: T1, CD66c (Cluster of Differentiation 66c) on cells (UniProt P40199 35-320, limits assumed); assay: flow cytometry on CD66c-positive A549 cells, FITC anti-human IgG
T1 construct: whole, on cells; also called CEACAM6; CEACAM 6
T1 sequence (looked up): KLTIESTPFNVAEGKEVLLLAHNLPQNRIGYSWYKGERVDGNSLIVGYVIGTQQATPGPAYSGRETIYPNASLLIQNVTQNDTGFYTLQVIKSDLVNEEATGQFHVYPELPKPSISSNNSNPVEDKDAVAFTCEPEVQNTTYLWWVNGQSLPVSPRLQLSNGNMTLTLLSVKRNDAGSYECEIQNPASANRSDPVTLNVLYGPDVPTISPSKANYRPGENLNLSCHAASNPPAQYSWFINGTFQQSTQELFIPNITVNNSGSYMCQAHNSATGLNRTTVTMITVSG
Description: Each expressed 96 recombinant humanized antibody was poured and reacted in a test tube containing the same amount […] of CD66c-positive A549 non-small-cell lung cancer cell line at 4° C. for 30 minutes, washed with PBS, and treated with FITC-conjugated goat anti-Huma IgG (DiNona Inc, Korea) was added and incubated at 4° C. for 15 minutes. After washing with PBS, the cells were analyzed with a flow cytometer (Stratedigm, S1000EXi) and the results are shown below.
Among the 96 recombinant humanized antibody candidates, eight were firstly selected based on the degree of expression, the presence of aggregation, and the degree of cell binding (Table 9 and Table 10, FIGS. 3A to 3E).

[2] = biological target: T2, Antigen CD66c (CEACAM6; Sino Biological, Inc.) (UniProt P40199 35-320); assay: ELISA, CEACAM6 coated 100 ng/well, antibody at 0.17 ng/ml
T2 construct: Bought antigen, coated on the ELISA plate; construct not described; also called CECACAM6 (CD66c) antigen; CD66c antigen
T2 sequence (looked up): T1 sequence (looked up)
Description: (§1) Antigen CD66c (CEACAM6; Sino Biological, Inc.) and CEACAM1 antigen (Sino Biological, Inc.) were coated on a 96-well plate at a rate of 100 ng per well and then blocked. The primary antibody was diluted 3-fold from 10 ug/ml and bound at 37° C. for 1 hour. […] goat anti-Human Ig-HRP conjugate (Jackson ImmunoResearch) as a secondary antibody was diluted 1:10,000 and incubated at 37° C. for 30 minutes. The washing was carried out at three times between each step, and the TMB reaction was performed, stopped with 1N H₂SO₄ solution at the same amount of TMB solution (100 ul) and then OD value was measured at 450 nm.
(§2) As a result of the experiment, the binding affinities to CD66c antigen of the five kinds of recombinant humanized antibodies selected from among 96 kinds of recombinant humanized antibodies are shown in FIG. 4a, Table 12, FIG. 4b and Table 13. FIG. 4a and Table 12 show the binding capacity of the antibodies to CECACAM6 CD66c) antigen, and FIG. 4b and Table 13 are the results for the CEACAM1 (CD66a) antigen.

[3] = biological target: T2, Antigen CD66c (CEACAM6; Sino …); assay: ELISA, CEACAM6 coated 100 ng/well, antibody at 0.51 ng/ml
Description: as §1, §2

[4] = biological target: T2, Antigen CD66c (CEACAM6; Sino …); assay: ELISA, CEACAM6 coated 100 ng/well, antibody at 1.52 ng/ml
Description: as §1, §2

[5] = biological target: T2, Antigen CD66c (CEACAM6; Sino …); assay: ELISA, CEACAM6 coated 100 ng/well, antibody at 4.57 ng/ml
Description: as §1, §2

[6] = biological target: T2, Antigen CD66c (CEACAM6; Sino …); assay: ELISA, CEACAM6 coated 100 ng/well, antibody at 13.72 ng/ml
Description: as §1, §2

[7] = biological target: T2, Antigen CD66c (CEACAM6; Sino …); assay: ELISA, CEACAM6 coated 100 ng/well, antibody at 41.15 ng/ml
Description: as §1

[8] = biological target: T2, Antigen CD66c (CEACAM6; Sino …); assay: ELISA, CEACAM6 coated 100 ng/well, antibody at 123.46 ng/ml
Description: as §1, §2

[9] = biological target: T2, Antigen CD66c (CEACAM6; Sino …); assay: ELISA, CEACAM6 coated 100 ng/well, antibody at 370.37 ng/ml
Description: as §1, §2

[10] = biological target: T2, Antigen CD66c (CEACAM6; Sino …); assay: ELISA, CEACAM6 coated 100 ng/well, antibody at 1111.11 ng/ml
Description: as §1, §2

[11] = biological target: T2, Antigen CD66c (CEACAM6; Sino …); assay: ELISA, CEACAM6 coated 100 ng/well, antibody at 3333.33 ng/ml
Description: as §1, §2

[12] = biological target: T2, Antigen CD66c (CEACAM6; Sino …); assay: ELISA, CEACAM6 coated 100 ng/well, antibody at 10000.00 ng/ml
Description: as §1, §2

B1: recombinant humanized anti-CD66c antibody Protein ID 3004 (Vk7 + VH5) (antibody, human IgG1, V domains shown)
VH: QVQLVQSGAEVKKPGASVKISCKASGYSFTDYTMNWVRQAHGQNLEWIGLINPFHGGTVSNQRFKVKATLTVDVSTNTAYMELSRLRSDDTAVYYCVRGDPVRHYYALAYWGQGTLVTVSS
VL: DIQMTQSPSTLSASVGDRVTITCGASENVYGTLNWYQRKPGKAPKLLIYGATNLADGVPSRFSGSGSGTEYTLTISSLQPDDFATYYCQNVLSAPYTFGGGTKLEIK
notes: also called #41
B1 was tested, and the “% (% gated × mean), against the chimeric antibody” value (shortened to “% (% gated × mean)”) [1] was 85%, the “% gated” value [1] was 71% and the “Mean (fluorescence)” value [1] was 541.

B2: recombinant humanized anti-CD66c antibody Protein ID 3046 (Vk8 + VH7) (antibody, human IgG1, V domains shown)
VH: B1 VH with V18M, H41P, N44G
VL: B1 VL with G24R, V58M
notes: also called #74
B2 was tested, and the “% (% gated × mean)” value [1] was 82.2%, the “% gated” value [1] was 71% and the “Mean (fluorescence)” value [1] was 523.

B3: recombinant humanized anti-CD66c antibody Protein ID 3019 (Vk7 + VH10) (antibody, human IgG1, V domains shown)
VH: B1 VH with I20V, R38K, H41P, L70M
VL: B1 VL
notes: also called hu 3019; #51
B3 was tested, and the “OD 450 nm” value [2] was 0.68 OD 450 nm, the “OD 450 nm” value [3] was 0.8 OD 450 nm and the “OD 450 nm” value [4] was 0.95 OD 450 nm. For the same binder, the “OD 450 nm” value [5] was 1.32 OD 450 nm, the “OD 450 nm” value [6] was 1.77 OD 450 nm and the “OD 450 nm” value [7] was 2.45 OD 450 nm. The “OD 450 nm” value [8] was 3.04 OD 450 nm, the “OD 450 nm” value [9] was 3.23 OD 450 nm and the “OD 450 nm” value [10] was 3.34 OD 450 nm. The “OD 450 nm” value [11] was 3.26 OD 450 nm, the “OD 450 nm” value [12] was 3.13 OD 450 nm and the “% (% gated × mean)” value [1] was 86.9%. For the same binder, the “% gated” value [1] was 70% and the “Mean (fluorescence)” value [1] was 561.

B4: recombinant humanized anti-CD66c antibody Protein ID 3010 (Vk7 + VH7) (antibody, human IgG1, V domains shown)
VH: B1 VH with V18M, H41P, N44G
VL: B1 VL
notes: also called #45
B4 was tested, and the “% (% gated × mean)” value [1] was 85.8%, the “% gated” value [1] was 70% and the “Mean (fluorescence)” value [1] was 554.
